We go through one substance from paper PMC3026963.

In this experiment the target is protein kinase CK2 catalytic subunit α (human) (UniProt P68400).
protein kinase CK2 catalytic subunit α (human), sequence (P68400 whole entry): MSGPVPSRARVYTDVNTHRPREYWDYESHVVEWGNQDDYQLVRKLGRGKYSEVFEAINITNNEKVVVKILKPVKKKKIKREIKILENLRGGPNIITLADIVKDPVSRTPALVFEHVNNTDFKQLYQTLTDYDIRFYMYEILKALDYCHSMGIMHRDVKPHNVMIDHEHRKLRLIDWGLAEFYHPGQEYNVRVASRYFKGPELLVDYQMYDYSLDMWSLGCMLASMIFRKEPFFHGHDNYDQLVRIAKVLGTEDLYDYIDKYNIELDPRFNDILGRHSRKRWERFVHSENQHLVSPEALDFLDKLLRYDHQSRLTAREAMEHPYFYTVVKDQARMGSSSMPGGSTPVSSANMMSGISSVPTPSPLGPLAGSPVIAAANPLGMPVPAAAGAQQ

β-peptide(181–203), sequence (P67870 181-203): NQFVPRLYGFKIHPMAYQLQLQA

Turning to “β-peptide(181–203) (from UniProt P67870 181-203)”, the Kd (in general, the concentration at which binding is half-saturated) is 8.45 µM.
